Earlier results on one substance are cited in article PMC7851832.

The target of the series is FGFR2 (Homo sapiens) (UniProt P21802).
Chain of FGFR2 (Homo sapiens) (P21802 22-821): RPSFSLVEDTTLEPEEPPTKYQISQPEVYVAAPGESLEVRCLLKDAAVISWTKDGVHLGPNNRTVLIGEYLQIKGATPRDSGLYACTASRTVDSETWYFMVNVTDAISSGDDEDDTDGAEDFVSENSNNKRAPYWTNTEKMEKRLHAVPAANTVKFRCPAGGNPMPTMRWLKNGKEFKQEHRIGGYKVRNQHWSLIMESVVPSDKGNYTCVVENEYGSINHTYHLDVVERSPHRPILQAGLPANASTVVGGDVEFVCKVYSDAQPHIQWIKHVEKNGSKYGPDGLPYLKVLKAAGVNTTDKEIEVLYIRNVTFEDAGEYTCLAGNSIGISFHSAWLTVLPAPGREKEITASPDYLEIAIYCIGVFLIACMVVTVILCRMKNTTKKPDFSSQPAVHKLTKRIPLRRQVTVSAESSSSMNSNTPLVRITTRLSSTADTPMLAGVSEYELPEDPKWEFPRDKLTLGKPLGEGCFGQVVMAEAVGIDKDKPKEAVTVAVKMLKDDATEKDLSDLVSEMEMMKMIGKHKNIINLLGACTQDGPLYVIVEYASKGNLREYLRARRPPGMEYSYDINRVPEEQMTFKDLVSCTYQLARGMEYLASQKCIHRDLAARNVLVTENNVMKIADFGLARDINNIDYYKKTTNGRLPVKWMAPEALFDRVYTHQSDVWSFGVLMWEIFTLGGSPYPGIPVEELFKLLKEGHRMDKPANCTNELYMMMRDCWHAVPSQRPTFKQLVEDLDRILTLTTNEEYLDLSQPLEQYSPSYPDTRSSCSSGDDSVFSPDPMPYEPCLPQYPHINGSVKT

Chain of FGF1 (P05230 16-155): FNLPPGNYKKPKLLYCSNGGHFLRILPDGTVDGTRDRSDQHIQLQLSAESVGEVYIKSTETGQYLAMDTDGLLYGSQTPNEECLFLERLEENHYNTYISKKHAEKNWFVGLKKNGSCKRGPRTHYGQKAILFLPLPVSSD

In the case of FGF1 (from UniProt P05230), the Kd was 0.3 µM.
